Experimental data from publication doi:10.1101/2023.07.08.548221.

Molecular target: strep-CsoS1A (hexameric shell protein CsoS1A) (Halothiobacillus neapolitanus) (UniProt P45689)
Experiment: turbidity

Sequence of UniProt P45689 (P45689 whole entry): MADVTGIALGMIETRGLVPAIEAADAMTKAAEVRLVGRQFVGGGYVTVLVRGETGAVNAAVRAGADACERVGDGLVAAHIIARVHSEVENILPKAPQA

fold turbidity with CsoS1A against wtMR: 5 fold
Substance: His-CsoS2B (full-length CsoS2, long form) (from UniProt O85041-1 1-869) (natural protein)
